The record followed here is paper PMC3744425.

This assay addresses Ubiquitin-7-amino-4-methylcoumarin (human) (UniProt P0CG48).
“TYMV PRO E759G/N760G mutant, N-terminally 6-histidine tagged (enzyme)”: the Kapp (apparent kcat/Km) of Ub-AMC hydrolysis, far from saturating conditions amounted to 2060 M⁻¹ s⁻¹.

With “TYMV PRO I847A mutant, N-terminally 6-histidine tagged (enzyme)”, the Kapp (apparent kcat/Km) of Ub-AMC hydrolysis, far from saturating conditions was 215 M⁻¹ s⁻¹.

On to “TYMV PRO I847D mutant, N-terminally 6-histidine tagged (enzyme)”, for which the Kapp (apparent kcat/Km) of Ub-AMC hydrolysis, far from saturating conditions came to 14 M⁻¹ s⁻¹.

Regarding “TYMV PRO L732A/L765A mutant, N-terminally 6-histidine tagged (enzyme)”, the Kapp (apparent kcat/Km) of Ub-AMC hydrolysis, far from saturating conditions worked out at 2510 M⁻¹ s⁻¹.

In the case of “Turnip yellow mosaic virus (TYMV) PRO domain, N-terminally 6-histidine tagged, wild type (enzyme)”, the Kapp (apparent kcat/Km) of Ub-AMC hydrolysis, far from saturating conditions came to 2650 M⁻¹ s⁻¹.
